In the RNAGym collection of RNA variant scans (doi:10.7554/elife.80360):

B1: Hairpin Ribozyme (parent)
chain: GUCCUCUUUCACGUGCGCGUGAAAGAGAGAAGUGAACCAGAGAAACACACGUUGUGGUAUAUUACCUGGUA

Variants of: B1
Test: self-cleavage, relative activity (ratio to wild type); higher = more cleavage; co-transcriptional

Variant | self-cleavage
GUCCUCUUUAACGUGCGCGUGAAAGAGAGAAGUGAACCAGAGAAACACACGUUGUGGAAUAUUACCUGGUA [C10A U58A] | 0.485
GUCCUCUUUGACGUGCGCGUGAAAGAGAGAAGUGAACCAGAGAAACACACGGUGUGGUAUAUUACCUGGUA [C10G U52G] | 0.631
GUCCUCUUUGACGUGCGCGUGAAAGAGAGAAGUGAACCAGAGAAACACACGUUGUGGAAUAUUACCUGGUA [C10G U58A] | 0.591
GUCCUCUUUGACGUUCGCGUGAAAGAGAGAAGUGAACCAGAGAAACACACGUUGUGGUAUAUUACCUGGUA [C10G G15U] | 0.851
GUCCUCUUUGACGUACGCGUGAAAGAGAGAAGUGAACCAGAGAAACACACGUUGUGGUAUAUUACCUGGUA [C10G G15A] | 0.624
GUCCUCUUUGACGUGCGCGUGAAAGAGCGAAGUGAACCAGAGAAACACACGUUGUGGUAUAUUACCUGGUA [C10G A28C] | 0.306
GUCCUCUUUGACGUGCGCGUGAAAGAGAGAGGUGAACCAGAGAAACACACGUUGUGGUAUAUUACCUGGUA [C10G A31G] | 0.576
GUCCUCUUUGACGUGCGCGUGAAAGAGAGACGUGAACCAGAGAAACACACGUUGUGGUAUAUUACCUGGUA [C10G A31C] | 0.198
GUCCUCUUUGACGUGCGCGUGAAAGAGAGAAGUCAACCAGAGAAACACACGUUGUGGUAUAUUACCUGGUA [C10G G34C] | 1.08
GUCCUCUUUGACGUGCGCGUGAAAGAGAGAAGUGAACCAGAGAAACACACGUUGUGGUACAUUACCUGGUA [C10G U60C] | 0.815
GUCCUCUUUGACGUGCGCGUGAAAGAGAGAAGUGAACCAGAGAAACACACGUUGUGGUAUAGUACCUGGUA [C10G U62G] | 0.138
GUCCUCUUUGAAGUGCGCGUGAAAGAGAGAAGUGAACCAGAGAAACACACGUUGUGGUAUAUUACCUGGUA [C10G C12A] | 0.491
GUCCUCUUUGACGUGCGCGUGAAAGAGAGAAGUGAACCGGAGAAACACACGUUGUGGUAUAUUACCUGGUA [C10G A39G] | 0.267
GUCCUCUUUGACGUGCGCGUGAAAGAGAGAAGUGAACCCGAGAAACACACGUUGUGGUAUAUUACCUGGUA [C10G A39C] | 0.357
GUCCUCUUUGACGUGCGCGUGAAAUAGAGAAGUGAACCAGAGAAACACACGUUGUGGUAUAUUACCUGGUA [C10G G25U] | 0.481
GUCCUCUUUGACGUGCGCGUGAAAAAGAGAAGUGAACCAGAGAAACACACGUUGUGGUAUAUUACCUGGUA [C10G G25A] | 0.211
GUCCUCUUUAACGUGCGCGAGAAAGAGAGAAGUGAACCAGAGAAACACACGUUGUGGUAUAUUACCUGGUA [C10A U20A] | 0.781
GUCCUCUUUGACGUGCGCGUGAAAGAGAGAAGUGAACCAGAGAAACACACGUUGUUGUAUAUUACCUGGUA [C10G G56U] | 0.109
GUCCUCUUUGACGUGCGCGUGAAAGAGAGAAGUGAACCAGAGAAACACACGUUGUCGUAUAUUACCUGGUA [C10G G56C] | 0.149
GUCCUCUUUGACGUGCGCGUGAAAGAGAGAAGUGAACCAGAGAAACACACGUUGUGGUAUAUAACCUGGUA [C10G U63A] | 0.158
GUCCUCUUUGACGUGCGCGUGAAAGAGAGAAGUGAACCAGAGAAACACACGUUGUGGUAUAUCACCUGGUA [C10G U63C] | 0.104
GUCCUCUUUGACGUGCGCGUGAAAGAGAGAAGUGAACCAGAGAAACACACGUUAUGGUAUAUUACCUGGUA [C10G G54A] | 0.375
GUCCUCUUUAACGUGCGCGUGAAAGAGAGAAGUGAACCAGAGAAACACACGUUGGGGUAUAUUACCUGGUA [C10A U55G] | 0.303
GUCCUCUUUAACGUGCGCGUGAAAGAGAGAAGUGAACCAGAGAAACACACGUUGCGGUAUAUUACCUGGUA [C10A U55C] | 0.248
GUCCUCUUUGACGUGCGCGUGAAAGAGAGAAGUGAACUAGAGAAACACACGUUGUGGUAUAUUACCUGGUA [C10G C38U] | 0.435
GUCCUCUUUGACGUGCGCGUGAAAGAGAGAAGUGAACGAGAGAAACACACGUUGUGGUAUAUUACCUGGUA [C10G C38G] | 0.133

Variant | self-cleavage
GUCCUCUUUGACGAGCGCGUGAAAGAGAGAAGUGAACCAGAGAAACACACGUUGUGGUAUAUUACCUGGUA [C10G U14A] | 0.635
GUCCUCUUUGACGCGCGCGUGAAAGAGAGAAGUGAACCAGAGAAACACACGUUGUGGUAUAUUACCUGGUA [C10G U14C] | 0.573
GUCCUCUUUGACGGGCGCGUGAAAGAGAGAAGUGAACCAGAGAAACACACGUUGUGGUAUAUUACCUGGUA [C10G U14G] | 0.378
GUCCUCUUUAACGUGCGCGUGAAAGAGAGAAGAGAACCAGAGAAACACACGUUGUGGUAUAUUACCUGGUA [C10A U33A] | 0.153
GUCCUCUUUAACGUGCGCGUGAAAGAGAGAAGUGAACCAGAGAAACACACGUUGUGGUAUAUUACCUGGCA [C10A U70C] | 0.616
GUCCUCUUUAACGUGCGCGUGAAAGAGAGAAGUGAACCAGAGAAACACACGUUGUGGUAUAUUACCUGGGA [C10A U70G] | 0.767
GUCCUCUUUAACGGGCGCGUGAAAGAGAGAAGUGAACCAGAGAAACACACGUUGUGGUAUAUUACCUGGUA [C10A U14G] | 0.632
GUCCUCUUUGACGUGCGCCUGAAAGAGAGAAGUGAACCAGAGAAACACACGUUGUGGUAUAUUACCUGGUA [C10G G19C] | 0.539
GUCCUCUUUGACGUGCGAGUGAAAGAGAGAAGUGAACCAGAGAAACACACGUUGUGGUAUAUUACCUGGUA [C10G C18A] | 0.907
GUCCUCUUUGACGUGCGGGUGAAAGAGAGAAGUGAACCAGAGAAACACACGUUGUGGUAUAUUACCUGGUA [C10G C18G] | 0.621
GUCCUCUUUGACGUGCGCGUGAAAGAGAGAAGUGUACCAGAGAAACACACGUUGUGGUAUAUUACCUGGUA [C10G A35U] | 0.517
GUCCUCUUUGACGUGCGCGUGAAAGAGAGAAGUGAACCAGAGAAAUACACGUUGUGGUAUAUUACCUGGUA [C10G C46U] | 0.0874
GUCCUCUUUGACGUGCGCGUGAAAGAGAGAAGUGAACCACAGAAACACACGUUGUGGUAUAUUACCUGGUA [C10G G40C] | 0.122
GUCCUCUUUGACGUGCGCGUGAAAGAGAGAAGUGAACCAGAGAAACACGCGUUGUGGUAUAUUACCUGGUA [C10G A49G] | 0.343
GUCCUCUUUGACGUGCGCGUGAAAGAGAGAAGGGAACCAGAGAAACACACGUUGUGGUAUAUUACCUGGUA [C10G U33G] | 0.25
GUCCUCUUUGACGUGCGCGUGAAAGAGAGAAGCGAACCAGAGAAACACACGUUGUGGUAUAUUACCUGGUA [C10G U33C] | 0.0987
GUCCUCUUUAACGUGCGCGUGAAAGAGAGAAGUGAACCAGAGAAACACACGGUGUGGUAUAUUACCUGGUA [C10A U52G] | 0.731
GUCCUCUUUGACGUGCACGUGAAAGAGAGAAGUGAACCAGAGAAACACACGUUGUGGUAUAUUACCUGGUA [C10G G17A] | 0.676
GUCCUCUUUGACGUGCGCGUGAAAGAGAGAAGUGAAUCAGAGAAACACACGUUGUGGUAUAUUACCUGGUA [C10G C37U] | 0.379
GUCCUCUUUGACGUGCGCGUGAAAGAGAGAAGUGAAGCAGAGAAACACACGUUGUGGUAUAUUACCUGGUA [C10G C37G] | 0.372
GUCCUCUUUGACGUGCGCGUGAAAGAGAGAAGUGAACCAGAGAAACCCACGUUGUGGUAUAUUACCUGGUA [C10G A47C] | 0.307
GUCCUCUUUGACGUGCGCGUGAAAGAGAGAAGUGAACCAGAGAAACACACCUUGUGGUAUAUUACCUGGUA [C10G G51C] | 0.585
GUCCUCUUUGACGUGCGCGUGAAAGAGAGAAGUGAACCAGAGAAACACACGUUGUGGUCUAUUACCUGGUA [C10G A59C] | 0.127
GUCCUCUUUGACGUGCGCGUGAAAGAGAGAAGUGAACCAGAGAAACACACGUUGUGGUGUAUUACCUGGUA [C10G A59G] | 0.171
GUCCUCUUUGACCUGCGCGUGAAAGAGAGAAGUGAACCAGAGAAACACACGUUGUGGUAUAUUACCUGGUA [C10G G13C] | 0.401
GUCCUCUUUGACGUGCGCGUGAAAGAGAGAAGUGAACCAGAGAAACACACGUUGUGGUAUAUUAACUGGUA [C10G C65A] | 0.746

Variant | self-cleavage
GUCCUCUUUAACGUGCGCGUGAAAGAGAGAAGUGAACCAGAGAAACACACGUUGUGGUAUAGUACCUGGUA [C10A U62G] | 0.162
GUCCUCUUUAACGUGCGCGUGAAAGAGAGAAGUGAACCAGAGAAACACACGUUGUGGUAUACUACCUGGUA [C10A U62C] | 0.241
GUCCUCUUUGACGUGCGCGUGAAAGAGAGAAGUGAUCCAGAGAAACACACGUUGUGGUAUAUUACCUGGUA [C10G A36U] | 0.336
GUCCUCUUUGACGUGCGCGUGAAAGCGAGAAGUGAACCAGAGAAACACACGUUGUGGUAUAUUACCUGGUA [C10G A26C] | 0.383
GUCCUCUUUGACGUGCGCGUGAAAGGGAGAAGUGAACCAGAGAAACACACGUUGUGGUAUAUUACCUGGUA [C10G A26G] | 0.776
GUCCUCUUUGACGUGCGCGUGAAAGUGAGAAGUGAACCAGAGAAACACACGUUGUGGUAUAUUACCUGGUA [C10G A26U] | 0.352
GUCCUCUUUGACGUGCGCGUGAAAGAGAGAAGUGAACCAGAGAAACACACGUUGUGGUAUAUUACCUUGUA [C10G G68U] | 0.148
GUCCUCUUUGACGUGCGCGUGAAAGAGAGAAGUGAACCAGAGAAACACACGUUGUGGUAUAUUACCUAGUA [C10G G68A] | 0.172
GUCCUCUUUGACGUGCGCGUGACAGAGAGAAGUGAACCAGAGAAACACACGUUGUGGUAUAUUACCUGGUA [C10G A23C] | 0.416
GUCCUCUUUGACGUGCGCGUGAAAGAGAGAAGUGAACCAGAGAAACACACGUUGUGCUAUAUUACCUGGUA [C10G G57C] | 0.124
GUCCUCUUUGACGUGCGCGUGAAAGAGAGAAGUGAACCAGAGAAACACACGUUGUGAUAUAUUACCUGGUA [C10G G57A] | 0.0913
GUCCUCUUUAACGUGCGCGUGAAAGAGAGAAGUGAACCAGAGAAACACACGUUGUGGUAAAUUACCUGGUA [C10A U60A] | 0.64
GUCCUCUUUAACGUGCGCGUGAAAGAGAGAAGUGAACCAGAGAAACACACGUUGUGGUAGAUUACCUGGUA [C10A U60G] | 0.377
GUCCUCUUUAACGUGCGCGUGAAAGAGAGAAGUGAACCAGAGAAACACACGUUGUGGUACAUUACCUGGUA [C10A U60C] | 0.579
GUCCUCUUUGACGUGCGCGUGAAAGAGAGAAGUGAACCAGAGAAACACACGUUGAGGUAUAUUACCUGGUA [C10G U55A] | 0.316
GUCCUCUUUGACGUGCGCGUGAAAGAGAGAAGUGAACCAGAGAAACACACGUUGGGGUAUAUUACCUGGUA [C10G U55G] | 0.195
GUCCUCUUUGACGUGCGCGUGCAAGAGAGAAGUGAACCAGAGAAACACACGUUGUGGUAUAUUACCUGGUA [C10G A22C] | 0.597
GUCCUCUUUGACGUGCGCGUGAAAGAGAGAAGUGAACCAGAUAAACACACGUUGUGGUAUAUUACCUGGUA [C10G G42U] | 0.214
GUCCUCUUUGACGUGCGCGUGAAAGAGAGAAGUGAACCAGACAAACACACGUUGUGGUAUAUUACCUGGUA [C10G G42C] | 0.307
GUCCUCUUUGACGUGCGCGGGAAAGAGAGAAGUGAACCAGAGAAACACACGUUGUGGUAUAUUACCUGGUA [C10G U20G] | 0.561
GUCCUCUUUGACGUGCGCGCGAAAGAGAGAAGUGAACCAGAGAAACACACGUUGUGGUAUAUUACCUGGUA [C10G U20C] | 0.647
GUCCUCUUUGACGUGCGCGUGAAAGAGAGAAGUGAACCAGAGAAACAGACGUUGUGGUAUAUUACCUGGUA [C10G C48G] | 0.0825
GUCCUCUUUGUCGUGCGCGUGAAAGAGAGAAGUGAACCAGAGAAACACACGUUGUGGUAUAUUACCUGGUA [C10G A11U] | 0.358
GUCCUCUUUGCCGUGCGCGUGAAAGAGAGAAGUGAACCAGAGAAACACACGUUGUGGUAUAUUACCUGGUA [C10G A11C] | 0.799
